Publication PMC1262730, “Purification and kinetic studies of recombinant gibberellin dioxygenases” (BMC Plant Biology, 2005)

Substrate: C=C1C[C@]23C[C@@]1(O)CC[C@H]2[C@@]12CCC[C@@](C)(C(=O)O1)[C@H]2[C@@H]3C(=O)O
Experiment: tritiated water release from [3H3]GA20, Michaelis-Menten fit (Origin)
Type: biochemical, Arabidopsis thaliana
Details: labelled compound (possible tritium isotope effect), 4 mM 2-oxoglutarate, 0.5 mM FeSO4, 4 mM ascorbate, 4 mM DTT, BSA, catalase, 100 mM Tris-HCl pH 7.9, 30 °C

B1: AtGA3OX4 (Arabidopsis thaliana) (protein)
chain: MPSLAEEICIGNLGSLQTLPESFTWKLTAADSLLRPSSAVSFDAVEESIPVIDLSNPDVTTLIGDASKTWGAFQIANHGISQKLLDDIESLSKTLFDMPSERKLEAASSDKGVSGYGEPRISPFFEKKMWSEGFTIADDSYRNHFNTLWPHDHTKYCGIIQEYVDEMEKLASRLLYCILGSLGVTVEDIEWAHKLEKSGSKVGRGAIRLNHYPVCPEPERAMGLAAHTDSTILTILHQSNTGGLQVFREESGWVTVEPAPGVLVVNIGDLFHILSNGKIPSVVHRAKVNHTRSRISIAYLWGGPAGDVQIAPISKLTGPAEPSLYRSITWKEYLQIKYEVFDKAMDAIRVVNPTN
notes: pET32 Xa/LIC N-terminal poly(His)-thioredoxin fusion expressed in E. coli BL21 (DE3), tag cut at engineered thrombin site, Superdex 75
  Km: 0.82 µM
